{"source": "patent US6362326B1", "about": "“11 cby genomic sequence” (SmithKline Beecham Corporation, priority 1998, dated 2002)", "biological_target": "11cby polypeptide of SEQ ID NO: 2 (Homo sapiens, UniProt Q99705)", "sequence (Q99705 whole entry)": "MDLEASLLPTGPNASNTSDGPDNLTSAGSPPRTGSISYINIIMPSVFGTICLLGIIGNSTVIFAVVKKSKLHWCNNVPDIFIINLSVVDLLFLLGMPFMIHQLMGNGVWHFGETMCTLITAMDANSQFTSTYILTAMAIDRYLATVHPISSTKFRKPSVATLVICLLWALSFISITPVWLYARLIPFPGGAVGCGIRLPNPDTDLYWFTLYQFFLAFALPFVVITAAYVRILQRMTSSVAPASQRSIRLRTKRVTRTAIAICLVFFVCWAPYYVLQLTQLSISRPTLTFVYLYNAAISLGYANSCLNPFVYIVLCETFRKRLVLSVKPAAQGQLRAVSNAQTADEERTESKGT", "assay": "binding of 11cby polypeptide to melanin-concentrating hormone", "settings": "qualitative statement, method or value not given", "data": [{"substance": "H-Asp-Phe-Asp-Met-Leu-Arg-Cys-Met-Leu-Gly-Arg-Val-Tyr-Arg-Pro-Cys-Trp-Gln-Val-OH [MCH]", "values": [{"measurement": "binding to 11cby polypeptide (7-transmembrane receptor)", "value": "bind"}]}]}
